In paper PMC5461814:

Legend:
[1] = target: Dityrosine cross-linked Aβ42 dimer [Aβ(M1-42)]DiY; experiment: centrifugation with thioflavin T read-out
[2] = target: Dityrosine cross-linked Aβ42 dimer [Aβ(M1-42)]DiY; experiment: SEC

## Dityrosine cross-linked Aβ42 dimer [Aβ(M1-42)]DiY (peptide)
[1]
  ThT signal of the end-stage sample removed by centrifugation: 80%
[2]
  decrease of the dimer peak at t = max: 40%
